Experimental data as given in patent US20180222975A1 (ELEVEN BIOTHERAPEUTICS, published 2018).
Positions count from the first letter of the chain named. Blank lines part the entries; values can stand above or below the binder they belong to.

How the values were obtained:
human IL-6 [1] = target: T1, human IL-6 (human, UniProt P05231 30-212); assay: ELISA, hybridoma supernatant on plates coated with human IL-6
T1 construct: also called IL-6 (R&D Systems, cat# 206-IL/CF); biotinylated human IL-6
Experimental: Hybridoma supernatants were screened for IL-6 binding and antagonism. For the binding ELISA, Costar 9018 plates were coated with 1 μg/mL human IL-6 in PBS overnight at 4° C. Wells were blocked with PBS containing 2% BSA, washed, and then incubated with 50 μL of each hybridoma supernatant diluted 1:2 with PBS containing 2% BSA. After 60 minutes, wells were washed three times with 300 μl PBS containing 0.1% Tween-20. Anti-mouse-HRP diluted 1:3000 in PBS-BSA was then added to each well and incubated for 30 minutes. Wells were washed as above then 3,3′,5,5′-tetramethylbenzidine (TMB) substrate was added and the signal measured at 450 and 550 nm. For antagonism studies, HEK-Blue™-IL6 reporter cells (InvivoGen. San Diego, Calif.) were incubated with increasing concentrations of human IL-6 in the presence of 1:10 diluted hybridoma supernatant. After 20-24 hours, 20 μl of supernatant was mixed with 180 μl QuantiBlue™ (InvivoGen) and the absorbance measured at 655 nm.

human IL-6 [2] = target: T1, human IL-6; assay: ELISA, blocking of IL-6/IL-6Rα complex binding to gp130
rat IL-6 = target: T2, rat IL-6 (rat, UniProt P20607 25-211); assay: monovalent affinity
T2 construct: also called rodent IL-6
T2 sequence (looked up): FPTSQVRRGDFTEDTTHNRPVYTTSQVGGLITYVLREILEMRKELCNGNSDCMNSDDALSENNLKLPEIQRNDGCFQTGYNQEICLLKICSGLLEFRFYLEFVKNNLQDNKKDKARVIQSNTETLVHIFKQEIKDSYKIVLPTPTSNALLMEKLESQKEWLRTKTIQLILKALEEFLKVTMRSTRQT

dog IL-6 = target: T3, dog IL-6 (dog, UniProt P41323 21-207, limits assumed); assay: monovalent affinity
T3 construct: also called canine IL-6
T3 sequence (looked up): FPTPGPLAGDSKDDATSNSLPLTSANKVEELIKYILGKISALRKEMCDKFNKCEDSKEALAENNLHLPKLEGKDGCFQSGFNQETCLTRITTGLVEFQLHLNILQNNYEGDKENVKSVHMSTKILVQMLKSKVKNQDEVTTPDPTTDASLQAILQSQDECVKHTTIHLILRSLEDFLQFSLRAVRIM

[3] = target: African green monkey IL-6 (African green monkey); assay: monovalent affinity
mouse IL-6 = target: T4, mouse IL-6 (mouse, UniProt P08505 25-211); assay: monovalent affinity
T4 construct: also called rodent IL-6
T4 sequence (looked up): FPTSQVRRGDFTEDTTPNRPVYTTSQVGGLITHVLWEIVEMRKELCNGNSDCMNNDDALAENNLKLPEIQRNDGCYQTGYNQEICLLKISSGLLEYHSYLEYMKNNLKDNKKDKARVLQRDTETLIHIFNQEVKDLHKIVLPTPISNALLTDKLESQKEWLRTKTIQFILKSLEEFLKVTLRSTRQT

rabbit IL-6 = target: T5, rabbit IL-6 (rabbit, UniProt Q9MZR1 27-241, limits assumed); assay: monovalent affinity
T5 sequence (looked up): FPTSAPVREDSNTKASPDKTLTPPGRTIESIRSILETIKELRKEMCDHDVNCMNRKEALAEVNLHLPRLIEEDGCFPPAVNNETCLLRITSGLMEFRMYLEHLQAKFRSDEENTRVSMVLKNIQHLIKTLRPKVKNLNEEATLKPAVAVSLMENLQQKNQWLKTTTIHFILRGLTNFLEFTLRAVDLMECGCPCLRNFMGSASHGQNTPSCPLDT

human IL-6 [4] = target: T1, human IL-6; assay: affinity tested using the yeast system; original humanized h64, before affinity maturation; yeast system

binding result (human IL-6 [1]): binds
B1: murine 64 antibody (antibody, V domains shown)
VH: QVQLQQSGAELVRPGTSVKVSCKASGYAFSNYLIEWVKQRPGQGLEWIGVITPGSGTINYNEKFKGKAVLTADKSSSTVYMQLSSLTSDDSAVYFCAKSRWDPLYYYALEYWGQGTSVTVSS
VL: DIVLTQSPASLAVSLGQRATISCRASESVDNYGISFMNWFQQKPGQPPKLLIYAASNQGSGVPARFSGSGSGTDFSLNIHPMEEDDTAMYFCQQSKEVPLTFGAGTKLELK
notes: Murine monoclonal; also called hybridoma 64; m64

binding result (human IL-6 [2]): binds
B2: chimeric murine 64 antibody (antibody, V domains shown)
VH: B1 VH
VL: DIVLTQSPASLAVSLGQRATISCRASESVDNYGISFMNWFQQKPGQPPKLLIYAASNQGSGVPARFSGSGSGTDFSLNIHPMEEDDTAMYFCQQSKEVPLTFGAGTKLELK
notes: constant regions not described

Kd (rat IL-6): > 1 µM
Kd (dog IL-6): > 1 µM
Kd [3]: 0.00028 µM
Kd (mouse IL-6): > 1 µM
Kd (rabbit IL-6): > 1 µM
B3: 018 Fab (Fab, V domains shown)
VH: QVQLVQSGAEVKKPGSSVKVSCKASGYALSNYLIEWVRQAPGQGLEWMGVITPGSGTINYAQKFQGRVTITADESTSTAYMELSSLRSEDTAVYYCARSRWDPLYYYALEYWGQGTTVTVSS
VL: DIVMTQSPDSLAVSLGERATINCRASESVDNYGIPFMNWYQQKPGQPPKLLIYAASNRGSGVPDRFSGSGSGTDFTLTISSLQAEDVAVYYCQQSEEVPLTFGQGTKLEIKR
notes: Fab with CK and IgG1 CH1 domains; also called Fab fragment of the h64-1,4 humanized antibody

Kd (human IL-6 [4]): 0.000343 µM
B4: h64 IgG (antibody, V domains shown)
VH: B3 VH with L29F
VL: DIVMTQSPDSLAVSLGERATINCRASESVDNYGISFMNWYQQKPGQPPKLLIYAASNQGSGVPDRFSGSGSGTDFTLTISSLQAEDVAVYYCQQSKEVPLTFGQGTKLEIK
notes: also called original h64 antibody; original humanized molecule
